According to patent US7732133B2, “Screening methods for biologically active ligands” (Chugai Seiyaku Kabushiki Kaisha, priority 2000, dated 2010):
Values belong to the substance of their own block, whether it stands above or below them.

Legend:
[1] = system: mixed culture of cell lines GFG, EPG, TPG and parental Ba/F3; assay: Cytokine responses in mixed and individual cell cultures (Example 2); type: cell-based, mouse; conditions: mixed culture of four cell lines (each 4×10^3 cells/well), similar in individual cultures, 72 hours, WST-8; listed as hEPO
Protocol: Mixed culture of the cell lines GFG, EPG, and TPG, which express human G-CSF, EPO, and TPO chimeric receptors, respectively, and their parental cell line Ba/F3 was conducted and their response to various cytokines was examined.
The cells were washed twice with RPMI1640 media containing 2% fetal bovine serum, and then were suspended in RPMI1640 containing 10% fetal bovine serum. The four cell lines were mixed by adjusting each of the cell lines to 4×10^4 cells/mL (16×10^4 cells/mL in total) for the mixed culture, and, for individual cultures, cells were prepared at 4×10^4 cells/mL. 100 μL each of the cells were independently seeded on a 96-well microtiter plate (flat bottom, Falcon). After adding 100 μL/well each of appropriately diluted cytokines, the cultures were cultured for 72 hours in a CO2 incubator (5% CO2 concentration). After the culture, 10 μL/well WST-8 reagent (Cell Count Reagent SF; Nacalai Tesque) was added, and pre-reaction absorbance at a measurement wavelength of 450 nm and a control wavelength of 655 nm was measured using a microplate reader (Model 3550, Bio Rad). The plate was incubated for two hours in a CO2 incubator (CO2 concentration, 5%), and post-reaction absorbance was measured as above. Data were graphed out taking the cytokine concentrations on the horizontal axis and the amount of changes in absorbance after 2-hour incubation on the vertical axis (FIGS. 18, 19, and 20).

[2] = Titer of human EPO and G-CSF prepared from recombinant CHO cells
[3] = target: T1, chimeric leptin receptor (human leptin receptor extracellular domain / mouse G-CSF receptor) in Ba/F3 cell line LPG (Homo sapiens, UniProt P48357); assay: Growth response of chimeric leptin receptor-expressing Ba/F3 cell line LPG (WST-8); type: cell-based; conditions: 72 hours culture, WST-8 absorbance
T1 construct: from the 1st to the 839th amino acid residues; expressed in transfected cells; host or cells: mouse Ba/F3 cells, clone LPG#51 = LPG
T1 sequence (P48357 22-839): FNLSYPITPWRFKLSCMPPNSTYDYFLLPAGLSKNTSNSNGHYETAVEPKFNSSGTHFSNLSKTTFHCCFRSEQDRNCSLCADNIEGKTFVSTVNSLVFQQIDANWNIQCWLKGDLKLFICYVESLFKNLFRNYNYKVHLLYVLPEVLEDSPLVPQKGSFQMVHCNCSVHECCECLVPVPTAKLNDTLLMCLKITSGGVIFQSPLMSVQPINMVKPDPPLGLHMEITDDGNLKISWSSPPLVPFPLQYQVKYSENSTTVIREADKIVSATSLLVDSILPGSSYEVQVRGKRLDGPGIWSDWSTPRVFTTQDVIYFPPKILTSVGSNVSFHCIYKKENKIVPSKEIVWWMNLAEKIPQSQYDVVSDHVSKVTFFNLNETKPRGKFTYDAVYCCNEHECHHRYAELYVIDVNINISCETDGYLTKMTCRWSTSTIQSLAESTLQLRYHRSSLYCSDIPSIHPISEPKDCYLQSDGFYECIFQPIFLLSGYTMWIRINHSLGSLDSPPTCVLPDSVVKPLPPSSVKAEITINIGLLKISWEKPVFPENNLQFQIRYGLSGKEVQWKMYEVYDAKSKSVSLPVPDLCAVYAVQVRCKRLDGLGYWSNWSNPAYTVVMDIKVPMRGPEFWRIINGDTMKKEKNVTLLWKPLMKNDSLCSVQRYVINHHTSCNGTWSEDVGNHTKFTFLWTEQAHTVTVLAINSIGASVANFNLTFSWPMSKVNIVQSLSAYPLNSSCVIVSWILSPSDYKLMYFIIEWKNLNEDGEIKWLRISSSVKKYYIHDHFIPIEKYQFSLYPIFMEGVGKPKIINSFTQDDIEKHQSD
Description: A chimeric receptor cDNA was constructed by linking cDNA fragments encoding the extracellular domain (from the 1st to the 839th amino acid residues; Tartaglia, L A. et al. (1995) Cell, 83, 1263-1271) of human leptin receptor, and the transmembrane and intracellular domains (from the 602nd to the 813th amino acid residues; Fukunaga, R. et al. (1990) Cell 61, 341-350) of mouse G-CSF receptor. This cDNA was inserted downstream of the HEF1α promoter of the mammalian expression vector pCV to construct chimeric receptor expression vector pCV-cLepR. pCV-cLepR was linearized with Pvu I (Takara Shuzo), extracted with phenol and chloroform, and purified by ethanol precipitation. […]
(§1) The cells were washed twice with Media A, and were suspended in Media A to give a cell density of 5×10^4 cells/mL. […] After the culture, 10 μL/well WST-8 reagent (Cell Count Reagent SF; Nacalai Tesque) was added, and pre-reaction absorbance at a measurement wavelength of 450 nm and a control wavelength of 655 nm was measured using microplate reader (Model 3550, Bio Rad). The plate was incubated for two hours in a CO2 incubator (CO2 concentration, 5%), and post-reaction absorbance was measured as above. […]

[4] = target: T2, chimeric LIF receptor (human LIF receptor and human gp130 / mouse G-CSF receptor) in Ba/F3 cell line LIG (Homo sapiens, UniProt P40189+P42702); assay: Growth response of chimeric LIF receptor-expressing Ba/F3 cell line LIG (WST-8); type: cell-based; conditions: 72 hours culture, WST-8 absorbance
T2 construct: from the 1st to the 833rd amino acid residues; expressed in transfected cells; host or cells: mouse Ba/F3 cells co-transfected with pCV-cLIFR and pCV-cgp130, clone LIG#47 = LIG
T2 sequence (P42702 45-833): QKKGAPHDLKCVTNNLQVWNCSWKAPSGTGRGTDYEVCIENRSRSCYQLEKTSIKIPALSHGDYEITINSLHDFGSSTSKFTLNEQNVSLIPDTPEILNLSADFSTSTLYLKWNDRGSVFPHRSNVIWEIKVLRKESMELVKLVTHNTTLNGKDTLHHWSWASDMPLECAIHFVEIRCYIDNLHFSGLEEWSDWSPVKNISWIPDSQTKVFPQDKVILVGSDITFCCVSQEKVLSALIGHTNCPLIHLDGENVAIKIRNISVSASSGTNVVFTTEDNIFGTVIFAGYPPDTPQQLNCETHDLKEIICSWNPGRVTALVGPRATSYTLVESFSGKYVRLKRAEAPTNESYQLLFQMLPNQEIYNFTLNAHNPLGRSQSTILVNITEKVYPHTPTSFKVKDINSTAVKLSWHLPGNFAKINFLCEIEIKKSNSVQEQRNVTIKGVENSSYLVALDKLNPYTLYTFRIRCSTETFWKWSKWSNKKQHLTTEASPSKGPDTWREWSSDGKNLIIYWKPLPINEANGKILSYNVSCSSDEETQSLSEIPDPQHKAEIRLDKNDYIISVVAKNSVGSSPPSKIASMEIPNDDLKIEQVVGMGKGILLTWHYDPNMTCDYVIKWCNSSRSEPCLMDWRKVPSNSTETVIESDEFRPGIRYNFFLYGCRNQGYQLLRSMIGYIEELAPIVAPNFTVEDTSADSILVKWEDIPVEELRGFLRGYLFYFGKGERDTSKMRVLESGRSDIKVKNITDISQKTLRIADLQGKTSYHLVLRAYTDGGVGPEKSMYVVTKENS
T2 sequence (P40189 23-619): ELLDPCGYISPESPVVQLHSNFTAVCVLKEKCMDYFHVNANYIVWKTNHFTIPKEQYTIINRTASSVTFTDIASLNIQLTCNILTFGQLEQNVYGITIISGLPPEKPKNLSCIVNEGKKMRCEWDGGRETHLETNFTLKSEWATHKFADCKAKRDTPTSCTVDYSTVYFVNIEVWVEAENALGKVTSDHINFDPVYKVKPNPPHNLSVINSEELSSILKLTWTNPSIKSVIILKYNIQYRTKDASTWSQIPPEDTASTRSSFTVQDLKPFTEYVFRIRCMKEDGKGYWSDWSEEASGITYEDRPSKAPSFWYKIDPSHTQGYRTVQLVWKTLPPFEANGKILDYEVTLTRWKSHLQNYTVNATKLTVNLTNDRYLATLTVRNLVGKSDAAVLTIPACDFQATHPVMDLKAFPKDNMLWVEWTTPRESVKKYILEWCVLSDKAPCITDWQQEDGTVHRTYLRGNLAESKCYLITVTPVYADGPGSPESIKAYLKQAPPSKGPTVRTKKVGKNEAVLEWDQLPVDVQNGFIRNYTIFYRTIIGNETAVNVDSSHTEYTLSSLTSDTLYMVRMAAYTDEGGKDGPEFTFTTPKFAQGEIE
T2 sequence (P40223 627-837 partner limits assumed): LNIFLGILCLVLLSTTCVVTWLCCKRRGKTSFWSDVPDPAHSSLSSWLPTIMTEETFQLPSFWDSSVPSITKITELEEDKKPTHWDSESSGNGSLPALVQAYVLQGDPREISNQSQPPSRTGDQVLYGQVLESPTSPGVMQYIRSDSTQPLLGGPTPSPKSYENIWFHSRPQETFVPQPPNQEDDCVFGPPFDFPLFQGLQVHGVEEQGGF
Description: Chimeric receptor DNAs were constructed by linking cDNA fragments encoding human LIF receptor (from the 1st to the 833rd amino acid residues; Gearing, D P. et al. […] EMBO J., 10, 2839-2848) and human gp130 (from the 1st to the 619th amino acid residues; Hibi, M. et al. (1990) Cell, 63, 1149-1157) with the transmembrane and intracellular domains (from the 602nd to the 813th amino acid residues; Fukunaga, R. et al. (1990) Cell 61, 341-350) of mouse G-CSF receptor, respectively. These constructs were inserted downstream of the HEF1α promoter of the mammalian expression vector pCV to construct chimeric receptors expression vectors, pCV-cLIFR and pCV-cgp130, respectively. pCV-cLIFR and pCV-cgp130 were linearized with Pvu I (Takara Shuzo), respectively, extracted with phenol and chloroform, and purified by ethanol precipitation. […]
as §1

Substance: erythropoietin [human EPO]
- concentration where the response was observed to start [1]: 2 pg/mL
- titer [2]: 270,000 IU/mg

- concentration at which an evident growth reaction was observed [3]: ≥ 0.2 ng/mL
Substance: human leptin: human leptin (Genzyme)

- concentration at which an evident growth reaction was observed [4]: ≥ 0.4 ng/mL
Substance: human LIF: human leukemia inhibitory factor (Genzyme)
